We go through two molecules from US20240343800A1 (Merck KGaA, published 2024).

For assay [1], the target named is T1, human ROR2 (on recombinant cell lines) (human, UniProt Q01974 34-943).
T1 construct: whole, on cells
The assay can be described thus: flow cytometry on recombinant cell lines; confirmed by standard ELISA.

The target of assay [2] is T2, human Fc-Frizzled-Kringle fusion protein (human Fc fused to the Frizzled and Kringle domains of human ROR1) (human).
T2 construct: Entry is printed with a leader; also called huFc-frz-KNG
Briefly: yeast surface display sorting.

Assay [3] concerns the target T3, human ROR1 (on cells) (human, UniProt Q01973 30-937). Briefly: cell-based or functional assay.
Assay [4] addresses T3, human ROR1 (on cells). Briefly: flow cytometry, ROR1+ MDA-MB-231 cells. The procedure: (§1) After 15-minutes of incubation at room temperature, the cells were washed twice with 200 μL of PBS by centrifugation at 500×g for 5 minutes at room temperature and resuspended in […] of 10% goat serum in BD staining buffer (BD Biosciences, Cat No: 554657). […] The plates were then covered with foil to avoid direct light and incubated for 60 minutes at 4° C. […] After incubating for 30 minutes at 4° C., the cells were washed twice with 200 μL of PBS by centrifugation at 500×g for 5 minutes at room temperature and resuspended into 100 μL of fixation buffer (BioLegend, Cat No: 420801). The samples were then analyzed on a flow cytometer for binding signal using FlowJo software. ROR and CD3 binding EC₅₀s (concentration vs mean fluorescence intensity (MFI)) for reference molecules and test bispecific TCEs were obtained using 4-parameter non-linear regression curve fitting in GraphPad Prism.
In general terms: A flow cytometer gives signals particle by particle.

Assay [5] deals with T4, mouse ROR1 (on 4T1 cells engineered to overexpress it) (mouse, UniProt Q9Z139 30-937).
T4 construct: whole, on cells; also called muROR1; mROR1
Briefly: flow cytometry, 4T1 cells overexpressing mouse ROR1. The procedure:
as §1

Assay [6] concerns the target T4, mouse ROR1 (on 4T1 cells engineered to …). Briefly: flow cytometry, 4T1-muROR1 cells; reference: 82H02 TCE #4. As for the experimental part:
as §1

Assay [7] deals with T3, human ROR1 (on cells). The assay can be described thus: cell-based or functional assay. This is another data set of the same source.
For assay [8], the target named is T5, human CD3 (on Jurkat T cells or human CD8+ T cells) (human, UniProt P07766 23-207; P09693 23-182; P04234 22-171; P20963 22-164).
T5 construct: Entries are printed with signal peptides; also called huCD3; CD3ε
Briefly: flow cytometry, human CD8+ T cells. In a few lines: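 Cells stained with test and reference bispecific TCEs, incubated 60 min at 4 °C protected from light, then 30 min at 4 °C further staining, washed and fixed before flow cytometry. Binding EC₅₀ from concentration vs MFI by 4-parameter non-linear regression.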

For assay [9], the target named is T4, mouse ROR1 (on 4T1 cells engineered to …). The assay can be described thus: flow cytometry; reference: human ROR1 on MDA-MB-231 cells.
Assay [10] has as its target T3, human ROR1 (on cells). The assay can be described thus: cell-based or functional assay. The source holds these as a separate data set.
The target of assay [11] is T3, human ROR1 (on cells). The assay can be described thus: flow cytometry, MDA-MB-231 cells; reference: 82H02 TCE #4.
The target of assay [12] is T3, human ROR1 (on cells). Briefly: cell-based or functional assay. This is another data set of the same source.
Assay [13] deals with T6, cynomolgus CD3 (on cynomolgus pan-T cells) (cynomolgus, UniProt Q95LI5 22-198).
T6 construct: whole, on cells
Briefly: flow cytometry, cynomolgus pan-T cells. As for the experimental part:
as §1

T2 sequence (chain, as listed by the source limits assumed): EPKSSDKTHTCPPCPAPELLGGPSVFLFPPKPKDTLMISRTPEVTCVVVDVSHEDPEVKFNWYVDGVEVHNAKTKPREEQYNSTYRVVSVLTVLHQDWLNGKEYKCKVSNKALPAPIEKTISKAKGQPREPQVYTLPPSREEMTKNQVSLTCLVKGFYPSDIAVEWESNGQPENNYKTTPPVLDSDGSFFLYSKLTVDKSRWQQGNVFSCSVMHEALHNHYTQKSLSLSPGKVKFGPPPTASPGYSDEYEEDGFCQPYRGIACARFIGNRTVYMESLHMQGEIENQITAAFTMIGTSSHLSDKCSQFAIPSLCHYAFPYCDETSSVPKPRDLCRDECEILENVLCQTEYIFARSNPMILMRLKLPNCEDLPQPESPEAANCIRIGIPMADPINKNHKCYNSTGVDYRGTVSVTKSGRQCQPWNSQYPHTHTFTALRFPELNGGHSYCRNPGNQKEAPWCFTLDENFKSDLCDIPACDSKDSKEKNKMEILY
T5 sequence (P07766 23-207 limits assumed, chain 1 of 4): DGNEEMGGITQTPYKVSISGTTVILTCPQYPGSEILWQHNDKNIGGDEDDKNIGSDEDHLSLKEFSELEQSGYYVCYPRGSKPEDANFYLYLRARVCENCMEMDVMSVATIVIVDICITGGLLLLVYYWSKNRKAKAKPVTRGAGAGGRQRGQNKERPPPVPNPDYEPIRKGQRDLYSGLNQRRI
T5 sequence (P09693 23-182 limits assumed, chain 2 of 4): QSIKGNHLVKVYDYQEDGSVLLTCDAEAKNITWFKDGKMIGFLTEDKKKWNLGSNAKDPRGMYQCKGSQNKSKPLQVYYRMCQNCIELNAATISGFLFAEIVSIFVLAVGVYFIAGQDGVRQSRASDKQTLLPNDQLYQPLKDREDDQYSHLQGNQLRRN
T5 sequence (P04234 22-171 limits assumed, chain 3 of 4): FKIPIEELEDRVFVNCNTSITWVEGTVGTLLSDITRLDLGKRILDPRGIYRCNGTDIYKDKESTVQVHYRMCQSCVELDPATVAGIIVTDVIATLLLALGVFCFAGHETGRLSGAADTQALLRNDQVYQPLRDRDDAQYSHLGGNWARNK
T5 sequence (P20963 22-164 limits assumed, chain 4 of 4): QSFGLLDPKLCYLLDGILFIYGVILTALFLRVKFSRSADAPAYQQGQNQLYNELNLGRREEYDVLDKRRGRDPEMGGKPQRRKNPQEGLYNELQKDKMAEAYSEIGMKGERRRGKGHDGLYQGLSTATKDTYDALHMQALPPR
T6 sequence (Q95LI5 22-198): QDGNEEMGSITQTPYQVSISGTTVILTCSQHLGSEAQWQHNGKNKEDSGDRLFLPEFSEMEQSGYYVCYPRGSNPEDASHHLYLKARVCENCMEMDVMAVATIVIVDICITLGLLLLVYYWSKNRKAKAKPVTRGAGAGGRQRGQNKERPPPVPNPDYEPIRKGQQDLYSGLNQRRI

B1: Clone 82H02 (from a Fab yeast surface display library of immunized transgenic rats) (Fab, V domains shown)
VH: EVQLLESGGGLVQPGGSLRLSCAASGFTFTSYAMSWVRQAPGKGLEWVSTISGSGGGTYYTDSVKGRFTISRDNSKNTLYLQMNSLRAEDTAVYYCAQGSSIFDYWGQGTLVTVSS
VL: EIVLTQSPATLSLSPGERATLSCRASQSVSSYLAWYQQKPGQAPRLLIYDASNRATGIPARFSGSGSGTDFTLTISSLEPEDFAVYYCQQRSNWPPCTFGQGTRLEIK
With B1, the binding result in [1] and in assay [2] was “no binding” each time.

B2: 82H02 TCE #3 (sequence optimized 82H02 bispecific TCE in Format 1A, low ROR1 / high CD3 affinity) (bispecific antibody)
heavy 1: EVQLVESGGGLVQPGGSLKLSCAASGFTFNTYAMNWVRQASGKGLEWVGRIRSKYNNYATYYADSVKGRFTISRDDSKNTLYLQMNSLKTEDTAVYYCVRHGNFGASYVSWFAYWGQGTMVTVSSASTKGPSVFPLAPSSKSTSGGTAALGCLVKDYFPEPVTVSWNSGALTSGVHTFPAVLQSSGLYSLSSVVTVPSSSLGTQTYICNVNHKPSNTKVDKKVEPKSCDKTHTCPPCPAPEAAGGPSVFLFPPKPKDTLMISRTPEVTCVVVDVSHEDPEVKFNWYVDGVEVHNAKTKPREEQYNSTYRVVSVLTVLHQDWLNGKEYKCKVSNKALGAPIEKTISKAKGQPFRPEVHLLPPSREEMTKNQVSLTCLARGFYPKDIAVEWESNGQPENNYKTTPSRQEPSQGTTTFAVTSKLTVDKSRWQQGNVFSCSVMHEALHNHYTQKTISLSPGK
heavy 2: EIVLTQSPATLSLSPGERATLSCRASQSVSSYLAWYQQKPGQAPRLLIYDASNRATGIPARFSGSGSGTDFTLTISSLEPEDFAVYYCQQRSNWPPFTFGQGTRLEIKGGGGSGGGGSGGGGSGGGGSEVQLLESGGGLVQPGGSLRLSCAASGFTFTSYAMSWVRQAPGKGLEWVSTISGSGGGTYYTDSVKGRFTISRDNSKNTLYLQMNSLRAEDTAVYYCAQGSSIFDYWGQGTLVTVSSEPKSSDKTHTCPPCPAPEAAGGPSVFLFPPKPKDTLMISRTPEVTCVVVDVSHEDPEVKFNWYVDGVEVHNAKTKPREEQYNSTYRVVSVLTVLHQDWLNGKEYKCKVSNKALGAPIEKTISKAKGQPREPQVYTLPPPSEELALNELVTLTCLVKGFYPSDIAVEWLQGSQELPREKYLTWAPVLDSDGSFFLYSILRVAAEDWKKGDTFSCSVMHEALHNHYTQKSLDRSPGKGGGGSGGGGSGGGGSGGGGSEIVLTQSPATLSLSPGERATLSCRASQSVSSYLAWYQQKPGQAPRLLIYDASNRATGIPARFSGSGSGTDFTLTISSLEPEDFAVYYCQQRSNWPPFTFGQGTRLEIKGGGGSGGGGSGGGGSGGGGSEVQLLESGGGLVQPGGSLRLSCAASGFTFTSYAMSWVRQAPGKGLEWVSTISGSGGGTYYTDSVKGRFTISRDNSKNTLYLQMNSLRAEDTAVYYCAQGSSIFDYWGQGTLVTVSS
light: QAVVTQEPSLTVSPGGTVTLTCRSSTGAVTTSNYANWVQQKPGQAPRGLIGGTNKRAPGTPARFSGSLLGGKAALTLSGVQPEDEAEYYCALWYSNLWVFGGGTKLTVLGQPKAAPSVTLFPPSSEELQANKATLVCLISDFYPGAVTVAWKADSSPVKAGVETTTPSKQSNNKYAASSYLSLTPEQWKSHRSYSCQVTHEGSTVEKTVAPTECS
notes: also called 82H02 #3; 82H02 VL1.06x1F3.5-VH1.03
On to B2, for which, in the assay with human ROR1 (on cells) [3], the “TDCC AUC, PBMCs: MDA-MB-231-0.2” value was determined as 31300; the “TDCC AUC, PBMCs: MDA-MB-231-0.4” value is 44800; the “TDCC AUC, PBMCs: MDA-MB-231-0.6” value is 51000; the “TDCC AUC, PBMCs: MDA-MB-231-1.3” value is 61700. Also, in the assay with human ROR1 (on cells) [3], the “TDCC AUC, PBMCs: MDA-MB-231-7” value came out at 71400; the “TDCC EC50, PBMCs: MDA-MB-231-0.2” value came out at 0.0181 nM; the “TDCC EC50, PBMCs: MDA-MB-231-0.4” value was determined as 0.0153 nM; the “TDCC EC50, PBMCs: MDA-MB-231-0.6” value stood at 0.0138 nM. Further, in the assay with human ROR1 (on cells) [3], the “TDCC EC50, PBMCs: MDA-MB-231-1.3” value was 0.0102 nM; the “TDCC EC50, PBMCs: MDA-MB-231-7” value was determined as 0.00546 nM; the “TDCC Emax, PBMCs: MDA-MB-231-0.2” value came out at 33.1%; the “TDCC Emax, PBMCs: MDA-MB-231-0.4” value turned out to be 47.8%. In addition, in the assay with human ROR1 (on cells) [3], the “TDCC Emax, PBMCs: MDA-MB-231-0.6” value stood at 53.8%; the “TDCC Emax, PBMCs: MDA-MB-231-1.3” value turned out to be 63.2%; the “TDCC Emax, PBMCs: MDA-MB-231-7” value came out at 72.8%. Further, the concentration for a half-maximal effect (EC50) – broadly, the concentration that produces a half-maximal response – with human ROR1 (on cells) [4] is 211 nM. For the same molecule, the half-maximal effective concentration (EC50) in assay [5] was 1040 nM. In addition, in assay [6], the “fold difference in ROR1 binding affinity against 82H02 TCE #4” value was ~2 fold. Besides, in the assay with human ROR1 (on cells) [7], the “IFNγ release EC50, PBMCs: MDA-MB-231” value turned out to be 425 nM and the “Max IFNγ, PBMCs: MDA-MB-231” value turned out to be 881 pg/mL. In assay [8], this molecule registered an EC50 of 3 nM. In addition, the “fold difference in apparent ROR1 binding affinity between human and mouse ROR1” value in [9] is ~5 fold. Moreover, in the assay with human ROR1 (on cells) [10], the “IFNγ release AUC, PBMCs: MDA-MB-231-0.2” value came out at 1.29e+06; the “IFNγ release AUC, PBMCs: MDA-MB-231-0.4” value amounted to 1.68e+06; the “IFNγ release AUC, PBMCs: MDA-MB-231-0.6” value is 1.62e+06; the “IFNγ release AUC, PBMCs: MDA-MB-231-1.3” value turned out to be 4.32e+06. Moreover, in the assay with human ROR1 (on cells) [10], the “IFNγ release AUC, PBMCs: MDA-MB-231-7” value stood at 4.43e+06; the “IFNγ release EC50, PBMCs: MDA-MB-231-0.2” value was 0.202 nM; the “IFNγ release EC50, PBMCs: MDA-MB-231-0.4” value amounted to 0.167 nM; the “IFNγ release EC50, PBMCs: MDA-MB-231-0.6” value was 0.107 nM. Moreover, in the assay with human ROR1 (on cells) [10], the “IFNγ release EC50, PBMCs: MDA-MB-231-1.3” value is 0.0308 nM; the “IFNγ release EC50, PBMCs: MDA-MB-231-7” value amounted to 0.0271 nM; the “IFNγ release Emax, PBMCs: MDA-MB-231-0.2” value was found to be 1830%; the “IFNγ release Emax, PBMCs: MDA-MB-231-0.4” value is 2250%. For the same molecule, in the assay with human ROR1 (on cells) [10], the “IFNγ release Emax, PBMCs: MDA-MB-231-0.6” value is 3160%; the “IFNγ release Emax, PBMCs: MDA-MB-231-1.3” value was 4680%; the “IFNγ release Emax, PBMCs: MDA-MB-231-7” value stood at 4730%. Moreover, the “fold difference in ROR1 binding affinity against 82H02 TCE #4” value in the assay with human ROR1 (on cells) [11] was ~3 fold. In addition, the “TDCC EC50, PBMCs: MDA-MB-231” value with human ROR1 (on cells) [12] is 148 nM. In assay [13], this molecule gave an EC50 of 4.4 nM.
